B1: CMRF35-like molecule 6 (Homo sapiens), Q08708 (parent)
chain: MTARAWASWRSSALLLLLVPGYFPLSHPMTVAGPVGGSLSVQCRYEKEHRTLNKFWCRPPQILRCDKIVETKGSAGKRNGRVSIRDSPANLSFTVTLENLTEEDAGTYWCGVDTPWLRDFHDPIVEVEVSVFPAGTTTASSPQSSMGTSGPPTKLPVHTWPSVTRKDSPEPSPHPGSLFSNVRFLLLVLLELPLLLSMLGAVLWVNRPQRSSRSRQNWPKGENQ
B2: CMRF35-like molecule 7 (Homo sapiens), A8K4G0 (parent)
chain: MWLPPALLLLSLSGCFSIQGPESVRAPEQGSLTVQCHYKQGWETYIKWWCRGVRWDTCKILIETRGSEQGEKSDRVSIKDNQKDRTFTVTMEGLRRDDADVYWCGIERRGPDLGTQVKVIVDPEGAASTTASSPTNSNMAVFIGSHKRNHYMLLVFVKVPILLILVTAILWLKGSQRVPEEPGEQPIYMNFSEPLTKDMAT
partner: B1 chain
B3: CMRF35-like molecule 6 (Homo sapiens), Q08708 (parent)
chain: B1 chain
partner: B2 chain

Variants of: B1
Conditions: with fcerg_human FCER1G

| Variant | effect of a mutation on the interaction |
| --- | --- |
| E191V | with no effect |

Variants of: B2
Conditions: with clm6_human CD300C, Q08708

| Variant | effect of a mutation on the interaction |
| --- | --- |
| E63S | with no effect |
| C50G | with no effect |
| W103G | with no effect |
| W55G | with no effect |
| D112M | with no effect |
| K158L | with no effect |

Variants of: B3
Conditions: with clm7_human CD300LB, A8K4G0

| Variant | effect of a mutation on the interaction |
| --- | --- |
| E191V | with no effect |
